Laboratory results taken from article PMC11574021, “CEP192 localises mitotic Aurora-A activity by priming its interaction with TPX2” (The EMBO Journal, 2024).
Like-named read-outs stand apart in the source and are kept apart here.

B2: Aurora-A^CAKD (Aurora-A kinase domain, aa 122–403 C290A, C393A), unphosphorylated (domain or fragment, human, UniProt O14965 122-403, looked up)
chain: ESKKRQWALEDFEIGRPLGKGKFGNVYLAREKQSKFILALKVLFKAQLEKAGVEHQLRREVEIQSHLRHPNILRLYGYFHDATRVYLILEYAPLGTVYRELQKLSKFDEQRTATYITELANALSYCHSKRVIHRDIKPENLLLGSAGELKIADFGWSVHAPSSRRTTLAGTLDYLPPEMIEGRMHDEKVDLWSLGVLCYEFLVGKPPFEANTYQETYKRISRVEFTFPDFVTEGARDLISRLLKHNPSQRPMLREVLEHPWITANSSKPSNAQNKESASKQS
notes: Aurora-A kinase domain, human, residues 122-403, variant lacking surface cysteines; also called Aurora-A 122–403 C290A C393A; unphosphorylated Aurora-A^CAKD; source: E. coli RIL, co-expressed with lambda phosphatase, purified (HisTrap, TEV cleavage, SEC); not shown: His6, N-terminal, cleaved
B3: human CEP192 468–533 Y487A/F490A (domain or fragment, UniProt Q8TEP8 468-533, looked up)
chain: PQSVVYQNEEGRWVTDLAYATSANSKQNLNVSLSDEMNEDFRSGSEAFDLIAQDEEEFNKEHQFIQ
notes: source: E. coli B834 RIL, purified (HisTrap, TEV cleavage, SEC); not shown: His6, N-terminal, cleaved; SUMO, N-terminal, cleaved

Experiments:
[1] = target: Aurora-A; settings: from ITC; ref (Burgess et al, [2015]; McIntyre et al, [2017]; Zorba et al, [2014]); cited from earlier work
Protocol: This is a higher affinity than observed in a previous study that used CEP192 proteins fused to MBP, a large protein tag that might have affected the interaction (Park et al, [2023]). For context, the affinity of Aurora-A for its other key mitotic partners are: TPX2_1-43 (Kd 0.3–2 μM from ITC) and TACC ...

[2] = target: T1, phosphorylated Aurora-A CAKD (Homo sapiens, UniProt O14965, C290A/C393A); assay: ADP-Glo kinase assay, kemptide substrate; type: biochemical
T1 construct: 10 nM Aurora-A 122–403 C290A C393A phosphorylated protein; His (N, cleaved yes); made in house; host or cells: E. coli B834 (no lambda phosphatase)
T1 sequence (O14965 122-403 C290A/C393A): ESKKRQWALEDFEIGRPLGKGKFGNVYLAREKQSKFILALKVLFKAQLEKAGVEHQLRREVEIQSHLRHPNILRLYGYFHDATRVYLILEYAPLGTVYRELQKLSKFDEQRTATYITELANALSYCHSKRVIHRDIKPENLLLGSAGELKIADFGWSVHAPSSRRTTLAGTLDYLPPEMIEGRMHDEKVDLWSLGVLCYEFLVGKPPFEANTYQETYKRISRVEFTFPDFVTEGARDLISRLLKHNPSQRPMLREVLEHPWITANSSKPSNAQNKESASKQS
Protocol: Reactions were initiated by the addition of 10 μM ATP and 100 μM kemptide as substrate (Cambridge Bioscience Ltd). The reactions were incubated at room temperature for 60 min before 5 μl was transferred into 5 ul of ADP-Glo Reagent (Promega) in a 384-well low volume low binding plate (Greiner Bio-one). After a further 40 min at room temperature, 10 μl of kinase detection reagent was added to each well, and the reaction was allowed to incubate for an additional 30 min. Luminescence was measured on a HIDEX Sense plate reader (HIDEX) using a 1 s integration time. Control data was subtracted from the luminescence and three repeats were averaged before being fitted to a sigmoidal plot using Origin (OriginLab), where IC50 and EC50 values were calculated.

[3] = target: T2, human CEP192 468–533 (human, UniProt Q8TEP8 468-533); assay: ITC; 250 μM Aurora-A in the syringe, 25 μM CEP192 construct in the cell; 25 °C; 20 mM tris pH 7.5, 200 mM NaCl, 10% glycerol, 5 mM MgCl2; settings: both partners purified
T2 construct: also called CEP192_(506-527_F); source: E. coli B834 RIL, purified (HisTrap, TEV cleavage, SEC); for crystallisation co-expressed with Aurora-A^M7KD and co-purified; not shown: His6, N-terminal, cleaved; SUMO, N-terminal, cleaved
T2 sequence (looked up): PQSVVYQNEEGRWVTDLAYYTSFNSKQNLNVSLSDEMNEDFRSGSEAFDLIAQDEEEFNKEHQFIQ

[4] = target: B3; assay: as above; settings: both partners purified
[5] = target: B2; assay: as above; settings: both partners purified
[6] = target: T3, Aurora-A^CAKD (Aurora-A kinase domain, aa 122–403 C290A, C393A), unphosphorylated (human, UniProt O14965 122-403, C290A | C393A); assay: FP; competition with FAM-TPX2 7-43
T3 sequence: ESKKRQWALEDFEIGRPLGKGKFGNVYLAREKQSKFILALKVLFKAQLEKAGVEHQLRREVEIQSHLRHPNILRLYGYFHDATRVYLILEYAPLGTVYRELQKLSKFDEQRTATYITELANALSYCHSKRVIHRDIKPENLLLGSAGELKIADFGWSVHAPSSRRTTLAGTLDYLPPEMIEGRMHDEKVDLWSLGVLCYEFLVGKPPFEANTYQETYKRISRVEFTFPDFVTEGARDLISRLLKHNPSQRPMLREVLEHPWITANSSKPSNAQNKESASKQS

B1: TPX2 1-43: Aurora-A activating domain of TPX2 (aa 1–43) (protein)
chain: MSQVKSSYSYDAPSDFINFSSLDDEGDTQNIDSWFEEKANLENKLLGKNGTGGLFQGKTPLRKANLQQAIVTPLKPVDNTYYKEAEKENLVEQSIPSNACSSLEVEAAISRKTPAQPQRRSLRLSAQKDLEQKEKHHVKMKAKRCATPVIIDEILPSKKMKVSNNKKKPEEEGSAHQDTAEKNASSPEKAKGRHTVPCMPPAKQKFLKSTEEQELEKSMKMQQEVVEMRKKNEEFKKLALAGIGQPVKKSVSQVTKSVDFHFRTDERIKQHPKNQEEYKEVNFTSELRKHPSSPARVTKGCTIVKPFNLSQGKKRTFDETVSTYVPLAQQVEDFHKRTPNRYHLRSKKDDINLLPSKSSVTKICRDPQTPVLQTKHRARAVTCKSTAELEAEELEKLQQYKFKARELDPRILEGGPILPKKPPVKPPTEPIGFDLEIEKRIQERESKKKTEDEHFEFHSRPCPTKILEDVVGVPEKKVLPITVPKSPAFALKNRIRMPTKEDEEEDEPVVIKAQPVPHYGVPFKPQIPEARTVEICPFSFDSRDKERQLQKEKKIKELQKGEVPKFKALPLPHFDTINLPEKKVKNVTQIEPFCLETDRRGALKAQTWKHQLEEELRQQKEAACFKARPNTVISQEPFVPKKEKKSVAEGLSGSLVQEPFQLATEKRAKERQELEKRMAEVEAQKAQQLEEARLQEEEQKKEELARLRRELVHKANPIRKYQGLEIKSSDQPLTVPVSPKFSTRFHC
Kd [1]: 300 to 2000 nM
EC50 ([2]; 10 nM phosphorylated Aurora-A CAKD, 10 μM ATP, 100 μM kemptide, 60 min, n = 3, read-out: ADP-Glo EC50 (stimulation of Aurora-A activity)): 6.8 ± 0.5 nM
EC50 ([2]; ADP-Glo, 10 nM Aurora-A, first manuscript version, quoted by referee, read-out: concentration of 50 % max activation): 1 nM

B2
stoichiometry N [3]: 0.85
stoichiometry N [4]: 0.84

B3
Kd [5]: 2000 nM
IC50 [6]: 14100 nM
